Measurements from patent publication US20130195884A1, “NOVEL MODULATORS OF TRAIL SIGNALLING” (Deutsches Krebsforschungszentrum, priority 2009, published 2013).

Assays:
[1] = cited from earlier work
[2] = tested on: low-grade Non-Hodgkin Lymphoma (NHL); conditions: combination with rituximab, phase Ib, cited from earlier work
[3] = tested on: freshly isolated human hepatocytes; conditions: cited from earlier work
[4] = tested on: HeLa cells; assay: Titration of TRAIL-induced apoptosis, cell viability by ATP quantification (CellTiterGlo); assay type: cell-based, human
Method: FIG. 2: Titration curve for TRAIL-induced apoptosis. HeLa cells were stimulated with 0.001 to 1000 ng/ml TRAIL, followed by analysis of cell viability by the quantification of ATP (CelliterGlo® assay).
FIG. 5. TRAIL-induced cell death in HeLa cells can be rescued by siRNAs. (A) TRAIL induces apoptosis in HeLa cells. Membrane blebbing was observed after 1-2 hours and a complete loss of viable cells was detected after 24 hours. (B) The killing activity of TRAIL in HeLa cells is concentration dependent. (C) Silencing the TRAIL-R1 receptor and caspase-8 with siRNAs, rescued the apoptotic effect to 70% and 100% viability of untreated cells, respectively.
Cell viability was quantified by the measurement of ATP (CeIlTiterGlo® Luminescent Cell Viability Assay) or the quantification of mitochondrial activity (MTT assay). CellTiterGlo® Luminescent Cell Viability Assay was performed according to manufacturer's instructions. Briefly, 24 h after TRAIL treatment, CellTiterGlo® reagent was added to the medium. After mixing and shaking for 2 min, the luminescent signal was measured using Mithras LB 940 (Berthold Technologies, Bad Wildbad, Germany).
To determine the exact sensitivity to TRAIL-induced apoptosis, a dose-response curve ranging from 0.01 to 1000 ng/ml TRAIL was performed. Cell viability was quantified 24 h later by the CellTiterGlo® assay as this method is very sensitive, reproducible and applicable for high-throughput approaches. […] Maximum cell death is reached at TRAIL concentrations around 100 ng/ml (cf. FIG. 2).
The death-inducing ligand TRAIL triggers apoptosis in HeLa cells shortly after application (FIG. 5 A). During this process, the cytoplasm shrinks, the DNA condensates and the cell membrane starts blebbing, releasing fragments of the cell in a controlled manner (reviewed in Yasuhara 2007). […] This process was also monitored with a cell-based viability assay, quantifying cellular ATP-levels. TRAIL induced cell death in HeLa cells in a dose-dependant manner (FIG. 5 B).

**Q.** For “rhApo2L/TRAIL: untagged version of recombinant soluble TRAIL, co-developed by Genentech and Amgen”, which “Toxicity in patients receiving the single agent” value [1] is on record?
**A.** no dose-limiting toxicity (DLT) or severe adverse effects (SAEs)

**Q.** And the “Serious adverse events of the combination” value [2]?
**A.** two SAEs possibly related to the combination

**Q.** What about the Tumor response assessment ([2]; eight patients with low-grade NHL) of the same molecule?
**A.** two showed complete response, one a partial response and five stable disease

**Q.** For “HIS-TRAIL: soluble TRAIL with an N-terminal polyhistidine tag”, which “Toxicity on freshly isolated human hepatocytes” value [3] is on record?
**A.** considerable toxicity

B1: TRAIL: death-inducing ligand, recombinant TRAIL used to trigger apoptosis in HeLa cells (protein, UniProt P50591 1-281, looked up)
Tumor necrosis factor ligand …: MAMMEVQGGPSLGQTCVLIVIFTVLLQSLCVAVTYVYFTNELKQMQDKYSKSGIACFLKEDDSYWDPNDEESMNSPCWQVKWQLRQLVRKMILRTSEETISTVQEKQQNISPLVRERGPQRVAAHITGTRGRSNTLSSPNSKNEKALGRKINSWESSRSGHSFLSNLHLRNGELVIHEKGFYYIYSQTYFRFQEEIKENTKNDKQMVQYIYKYTSYPDPILLMKSARNSCWSKDAEYGLYSIYQGGIFELKENDRIFVSVTNEHLIDMDHEASFFGAFLVG
**Q.** What does the source list for B1?
**A.** Membrane blebbing observed after ([4]; HeLa cells after addition of TRAIL): 1 to 2 h; Viable cells left after TRAIL treatment ([4]; HeLa cells, 100 ng/ml recombinant TRAIL, 24 hours): no viable cells were left; TRAIL concentration at which maximum cell death is reached ([4]; HeLa cells, dose-response 0.01 to 1000 ng/ml TRAIL, viability after 24 h, CellTiterGlo): around 100 ng/ml
